The target in this assay is C1080 envelope on concentrated pseudovirus particles (HIV-1 strain C1080 (clone C1080.c3 …, UniProt I6NF57, strain)). Kind of assay: ELISA. The note with it: one partner purified.

B1: CAP228-3D IgG1 (antibody, V domains shown)
VH: EVQLVQSGAEVKKPGESLKISCKGFGYSFSTYWIAWVRQMPGKGLEWMGMIYPGDSDTKYSPSLQGQVTISGDKSISTAYLQWSSLKASDTAMYYCARLLNNYDSSGFLYWYLDLWGRGTLVTVSS
VL: NFMLTQPHSVSESPGKTVTISCTRSSGSIASDYVQWYQQRPGSSPTTVIYEDNQRPSGVPDRFSGSIDSSSNSASLTISGLKTEDEADYYCQSYDMTNHNWVFGGGTKLTVL
B1: the binding result was “binds”.

B2: 830 A (antibody, V domains shown)
VH: QVQLQQWGPGLLKPSETLSLTCAVYGGSFGRYYWSWIRQSSGEGLEWLGQIDHTGSTTYNPSLKGRVTISIDSSTNQFSLKVTSVIAADTAVYYCARAPSGYPGVSLYQYYGLDVWGQGTTVTVSS
VL: DTVMTQSPATLSVSPGERVTLSCRASQIINTNLAWYQKRPGQAPRLLIYAASARATGIPARFSGSGSGTEFTLTISGLQSEDSAVYYCQQYKHWPPYTFGRGTKLEIR
notes: also called V2i mAb 830 A
Take B2: the binding result is “binds”.

For the origin of these results see publication PMC6203816 (Nature Communications, 2018).
